The values below come from patent US20250276077A1 (IMMUNOME, published 2025).

For assay [1], the target named is T1, Human EphA2 (ephrin receptor A2) on cells (human, UniProt P29317 25-976). The assay can be described thus: cell-based or functional assay.
Assay [2] deals with T1, Human EphA2 (ephrin receptor A2) on …. The assay can be described thus: cell-based or functional assay. This is another data set of the same source.
Assay [3] shares this target. The assay can be described thus: cell-based or functional assay. This is another data set of the same source.
Assay [4] has the same target. The assay can be described thus: cell-based or functional assay. The source holds these as a separate data set.
The next assay deals with T2, hEphA2-clv435-534-Fc (human, UniProt P29317 435-534).
T2 construct: Recombinant fragment representing a cleavage form; not shown: human Fc, C-terminal to the EphA2 part
T2 sequence (P29317 435-534): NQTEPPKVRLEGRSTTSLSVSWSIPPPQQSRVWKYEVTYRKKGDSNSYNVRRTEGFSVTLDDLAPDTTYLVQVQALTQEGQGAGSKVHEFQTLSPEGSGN
The assay can be described thus: SPR Biacore, 25 C; hEphA2-Fc fusion captured by anti-human Fc, Fab analyte. The procedure:
(§1) The hEphA2-Fc fusions were captured with an anti-human Fe immobilized to a CM5 chip.
(§2) Biacore® assays were conducted at 25° C. using HBS-EP+ buffer (0.01 M HEPES pH 7.4, 0.15 M NaCl, 3 mM EDTA, 0.005% v/v Surfactant P20). Data was double-reference subtracted and data was analyzed using 1:1 Langmuir binding model and steady-state model in Biacore Evaluation software.
(§3) Binding to hEphA2-ECD-Fc tested using 100, 300, and 900 nM analyte.
(In general: In SPR one partner is held on a chip, and binding of the other changes the refractive index at the surface.)

The next assay concerns the target T3, hEphA2-clv385-534-Fc (human, UniProt P29317 385-534).
T3 construct: Recombinant fragment representing a cleavage form; not shown: human Fc, C-terminal to the EphA2 part
The description is as above. The procedure: as §1, §2, §3

In another assay the target is T4, hEphA2-clv395-534-Fc (human, UniProt P29317 395-534).
T4 construct: Recombinant fragment representing a cleavage form; not shown: human Fc, C-terminal to the EphA2 part
T4 sequence (P29317 395-534): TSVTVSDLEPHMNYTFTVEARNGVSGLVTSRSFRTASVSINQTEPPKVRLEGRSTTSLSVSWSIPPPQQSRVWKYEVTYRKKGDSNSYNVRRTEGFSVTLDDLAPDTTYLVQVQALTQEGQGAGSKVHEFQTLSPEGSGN
The description is as above. The procedure:
as §1, §2, §3

The target of assay [5] is T5, hEphA2-FN12-(327-534) - Fc (human, UniProt P29317 327-534).
T5 construct: also called FN1-FN2 domains Fc fusion; not shown: human Fc, C-terminal to the EphA2 part
T5 sequence (P29317 327-534): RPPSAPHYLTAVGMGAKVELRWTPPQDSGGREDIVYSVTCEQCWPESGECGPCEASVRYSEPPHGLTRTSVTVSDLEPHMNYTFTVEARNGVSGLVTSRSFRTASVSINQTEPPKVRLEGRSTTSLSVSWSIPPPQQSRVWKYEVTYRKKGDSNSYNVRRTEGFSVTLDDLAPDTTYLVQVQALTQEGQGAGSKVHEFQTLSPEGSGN
Described as above. The procedure:
as §1, §2, §3

The target of assay [6] is T6, hEphA2-FN2-(437-534) - Fc (human, UniProt P29317 437-534).
T6 construct: also called FN2 domain Fc fusion; not shown: human Fc, C-terminal to the EphA2 part
T6 sequence (P29317 437-534): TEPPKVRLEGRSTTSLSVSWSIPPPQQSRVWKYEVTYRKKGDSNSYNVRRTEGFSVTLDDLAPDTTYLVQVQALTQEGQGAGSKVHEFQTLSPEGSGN
The description is as above. The protocol:
as §1, §2, §3

The next assay has as its target T7, hEphA2-clv432-534-Fc (human, UniProt P29317 432-534).
T7 construct: Recombinant fragment representing a cleavage form; not shown: human Fc, C-terminal to the EphA2 part
The assay is described as above. The protocol:
as §1, §2, §3

Assay [7] concerns the target T1, Human EphA2 (ephrin receptor A2) on …. The assay can be described thus: flow cytometry on A549 cells. The protocol:
Surface binding of the antibodies to in vitro grown cell lines was assessed by flow cytometry. Tumor cells were detached from their culture plate using Versene and counted. Cells were staining in BSA-containing buffer with primary antibody for 30 minutes at 4° C. with shaking. Following, cells were washed and stained with secondary PE-labeled antibody for 30 minutes at 4° C. with shaking. Before analysis on an Intellicyt iQue3 scanner, cells were counterstained with DAPI. MedFI values from live, single cells was expressed as fold over isotype control.

Assay [8] has the same target. The assay can be described thus: cell-based or functional assay. The source holds these as a separate data set.
The target is the same in assay [9]. The assay can be described thus: cell-based or functional assay. This is another data set of the same source.
The target of assay [10] is T8, C-terminally His-tagged hEphA2-FN2 (Thr437-Asn534+His tag) (human, UniProt P29317 437-534).
T8 construct: also called FN2 domain of hEphA2
T8 sequence (P29317 437-534 limits assumed): as the sequence (P29317 437-534) above
The assay can be described thus: SPR Biacore T200, 25 C; mIgG2a as immobilized ligand, hEphA2-FN2-His analyte. The procedure: Binding of EphA2 antibodies to the FN2 domain of hEphA2 was measured using the Biacore® T200 SPR system. Biacore® assays were conducted at 25° C. using HBS-EP+ buffer (0.01 M HEPES pH 7.4, 0.15 M NaCl, 3 mM EDTA, 0.005% v/v Surfactant P20) using the FN2 domain as the analyte with the antibodies in mIgG2a format as the immobilized ligand. Data was analyzed using 1:1 Langmuir binding model and steady-state model in Biacore Evaluation software.
C-terminally His-tagged human EphA2 FN2 domain (Thr437-Asn534+His tag) was used as the analyte. The analyte was associated for 120 seconds and dissociated for 100 seconds or 300 seconds at 30 μL/min.

Assay [11] addresses T8, C-terminally His-tagged hEphA2-FN2 …. The assay can be described thus: SPR Biacore T200, 25 C; mIgG2a captured by anti-mouse Fc, hEphA2-FN2-His analyte; steady-state monovalent KD. The protocol:
Binding of antibodies to the FN2 domain of hEphA2 was measured using the Biacore® T200 SPR system at 25° C. using HBS-EP+ buffer (0.01 M HEPES pH 7.4, 0.15 M NaCl, 3 mM EDTA, 0.005% v/v Surfactant P20). Antibodies in mIgG2a format were captured at levels between 475-715 RU via an anti-mouse Fc antibody immobilized to a CM5 chip. Binding was assessed using a titration of C-terminally His-tagged hEphA2-FN2 (Thr437-Asn534+His tag) associated for 30 s or 75 s at 30 μL/min. Data was double-reference subtracted using both a surface without captured antibody and from injections of HBS-EP+ buffer. The equilibrium response was measured at 4 seconds before the end of association with a window of 5 seconds and fit using the Biacore T200 Evaluation Software 3.1 with the Steady State Affinity Model.

Assay [12] deals with human 4-1BB on reporter cells (human, UniProt Q07011 24-255). The assay can be described thus: cell-based or functional assay.
human 4-1BB on reporter cells, sequence (Q07011 24-255): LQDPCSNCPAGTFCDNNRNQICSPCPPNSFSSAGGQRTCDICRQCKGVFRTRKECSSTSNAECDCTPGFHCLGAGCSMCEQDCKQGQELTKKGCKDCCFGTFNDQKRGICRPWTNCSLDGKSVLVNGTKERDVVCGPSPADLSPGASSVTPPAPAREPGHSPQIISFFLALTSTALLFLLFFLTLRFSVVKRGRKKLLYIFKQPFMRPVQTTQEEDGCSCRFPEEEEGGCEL

T7 sequence (P29317 432-534): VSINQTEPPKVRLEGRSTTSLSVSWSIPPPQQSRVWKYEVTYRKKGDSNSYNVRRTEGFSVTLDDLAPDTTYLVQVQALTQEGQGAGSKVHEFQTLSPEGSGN
T1 sequence (P29317 25-976): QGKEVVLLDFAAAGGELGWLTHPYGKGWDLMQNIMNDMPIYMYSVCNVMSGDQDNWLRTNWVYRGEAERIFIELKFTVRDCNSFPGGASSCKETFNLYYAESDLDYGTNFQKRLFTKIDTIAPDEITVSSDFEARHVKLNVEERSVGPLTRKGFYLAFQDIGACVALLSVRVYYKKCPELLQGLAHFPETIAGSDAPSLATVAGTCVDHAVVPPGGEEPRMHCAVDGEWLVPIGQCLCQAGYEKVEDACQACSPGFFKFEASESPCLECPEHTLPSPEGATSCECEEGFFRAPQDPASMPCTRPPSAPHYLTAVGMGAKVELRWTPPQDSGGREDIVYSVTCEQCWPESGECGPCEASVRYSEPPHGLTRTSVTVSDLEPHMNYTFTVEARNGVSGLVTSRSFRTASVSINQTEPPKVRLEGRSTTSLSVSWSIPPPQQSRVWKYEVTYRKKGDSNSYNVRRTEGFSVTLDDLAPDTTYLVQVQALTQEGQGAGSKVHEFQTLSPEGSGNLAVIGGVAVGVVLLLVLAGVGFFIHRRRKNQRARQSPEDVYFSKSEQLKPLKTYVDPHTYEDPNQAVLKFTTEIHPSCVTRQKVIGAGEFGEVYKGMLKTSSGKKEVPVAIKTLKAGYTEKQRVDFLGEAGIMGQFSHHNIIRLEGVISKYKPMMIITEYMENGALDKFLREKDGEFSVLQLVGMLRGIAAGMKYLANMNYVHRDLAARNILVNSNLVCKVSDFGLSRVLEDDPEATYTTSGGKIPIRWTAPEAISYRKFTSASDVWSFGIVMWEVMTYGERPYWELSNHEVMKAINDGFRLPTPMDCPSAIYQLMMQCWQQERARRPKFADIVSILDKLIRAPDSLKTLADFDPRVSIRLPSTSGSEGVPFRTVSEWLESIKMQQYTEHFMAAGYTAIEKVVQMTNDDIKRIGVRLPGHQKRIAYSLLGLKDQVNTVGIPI
T3 sequence (P29317 385-534): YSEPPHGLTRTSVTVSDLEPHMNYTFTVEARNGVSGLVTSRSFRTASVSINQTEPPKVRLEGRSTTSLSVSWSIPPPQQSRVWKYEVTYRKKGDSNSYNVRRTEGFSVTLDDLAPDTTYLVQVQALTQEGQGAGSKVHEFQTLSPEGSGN

B1: AB-010699 (antibody, V domains shown)
VH: QVQLQQWGAGLLKPSETLSLTCAVYGGSFSGYYWSWIRQPPGKGLEWIGEINHRGSINYNNYNPSLKSRVTISVDTSKNQFSLKLSSVTAADTAVYYCAKPLRPHCINGVCYSGDAFDIWGQGTMVTVAS
VL: SYVLTQPPSVSVAPGQTARITCGGNNIGYKNVHWYQQKPGQAPVLVVYDDSDRPSGIPERFSGSNSGNTATLTISRVEAGDEADYYCQVWDHSSDHVVFGGGTKLTVL
As for B1, the “EC50 (read off the curve), EphA2 pY588 phosphorylation, soluble agonist titration” value in assay [1] is ~3e-09 M. For the same molecule, in [2], the “ADCC - EC50 (nM), Trial 1, A549” value is ~0.014 nM and the “ADCC - EC50 (nM), Trial 2, A549” value came out at 0.0058 nM.

B2: AB-010363 (antibody, V domains shown)
VH: QVQLQQWGAGLLKPSETLSLTCAVYGGSFSGYYWSWIRQPPGKGLEWIGEINHRGSINYNNYNPSLKSRVTISVDTSKNQFSLKLSSVTAADTAVYYCAKPLRPHCTNGVCYSGDAFDIWGQGTMVTVAS
VL: SYVLTQPPSVSVAPGQTARITCGGNNIGSKNVHWYQQKPGQAPVLVVYDDSDRPSGIPERFSGSNSGNTATLTISRVEAGDEADYYCQVWDSSSDHVVFGGGTKLTVL
Consider B2, for which, in assay [3], the “ADCC EC50 (nM), parent, A549” value turned out to be 4.65 nM. Moreover, in [4], the “ADCC EC50” value was determined as 9.5 nM and the “ADCC Fold-improved (against AB-008873)” value amounted to 3.66 fold. Moreover, in assay [2], the “ADCC - EC50 (nM), Trial 1, A549” value was 5.1 nM and the “ADCC - EC50 (nM), Trial 2, A549” value turned out to be 4.2 nM.

B3: AB-010357 (antibody, mouse IgG2a, V domains shown)
VH: QVQLQQWGAGLLKPSETLSLTCAVYGGSFSDYYWSWIRQPPGKGLEWIGEINHRGSINYNNYNPSLKSRVTISVDTSKNQFSLKLSSVTAADTAVYYCAKPLRPHCTNGVCYSGDAFDIWGQGTMVTVAS
VL: SYVLTQPPSVSVAPGQTARITCGGNNIGSKNVHWYQQKPGQAPVLVVYDDSDRPSGIPEQFSGSNSGNTATLTISRVEAGDEADYYCQVWDSSSDHVVFGGGTKLTVL
In the case of B3, in [3], the “ADCC EC50 (nM), parent, A549” value worked out at 10.9 nM. In assay [4], the “ADCC EC50” value came out at 11.6 nM and the “ADCC Fold-improved (against AB-008873)” value was 3 fold. Moreover, in [2], the “ADCC - EC50 (nM), Trial 1, A549” value came out at 12.3 nM and the “ADCC - EC50 (nM), Trial 2, A549” value stood at 9.6 nM.

B4: AB-010361 (antibody, mouse IgG2a, V domains shown)
VH: QVQLQQWGAGLLKPSETLSLTCAVYGGSFSGYYWSWIRQPPGKGLEWIGEINHRGSINYNNYNPSLKSRVTISVDTSKNQFSLKLSSVTAADTAVYYCAKPLRPHCTNGVCYSGDAFDIWGQGTMVTVAS
VL: SYVLTQPPSVSVAPGQTARITCGGNNIGSKNVHWYQQKPGQAPVLVVYDDSDRPSGIPEQFSGSNSGNTATLTISRVEAGDEADYYCQVWDSSSDHVVFGGGTKLTVL
For B4, in assay [3], the “ADCC EC50 (nM), parent, A549” value stood at 3.1 nM. In assay [4], the “ADCC EC50” value was 3.1 nM and the “ADCC Fold-improved (against AB-008873)” value amounted to 11.2 fold. In addition, in assay [2], the “ADCC - EC50 (nM), Trial 1, A549” value is 4 nM and the “ADCC - EC50 (nM), Trial 2, A549” value came out at 2.2 nM.

B5: AB-010699 human Fab fragment (Fab, V domains shown)
VH: QVQLQQWGAGLLKPSETLSLTCAVYGGSFSGYYWSWIRQPPGKGLEWIGEINHRGSINYNNYNPSLKSRVTISVDTSKNQFSLKLSSVTAADTAVYYCAKPLRPHCINGVCYSGDAFDIWGQGTMVTVAS
VL: SYVLTQPPSVSVAPGQTARITCGGNNIGYKNVHWYQQKPGQAPVLVVYDDSDRPSGIPERFSGSNSGNTATLTISRVEAGDEADYYCQVWDHSSDHVVFGGGTKLTVL
notes: Human Fab format
Broadly, the Kd is the constant that tells how readily two partners part at equilibrium. Low values mean a tighter complex, high ones a looser complex. As usually defined, the koff is the first-order rate constant of dissociation. The kon is a measure of how fast the partners come together. Higher therefore signals fast association. With B5, the Kd was found to be 9.3 nM with hEphA2-clv435-534-Fc; 12 nM in the assay with hEphA2-clv385-534-Fc; 12 nM with hEphA2-clv395-534-Fc; 8.6 nM in [5]; 8.6 nM in [6]; 9.6 nM with hEphA2-clv432-534-Fc. The koff in the assay with hEphA2-clv435-534-Fc came to 0.078 s⁻¹; with hEphA2-clv385-534-Fc, 0.072 s⁻¹; with hEphA2-clv395-534-Fc it was 0.07 s⁻¹; in assay [5], 0.043 s⁻¹; in assay [6], 0.085 s⁻¹; in the assay with hEphA2-clv432-534-Fc, 0.075 s⁻¹. In addition, the kon is 8.42e+06 M⁻¹ s⁻¹ in the assay with hEphA2-clv435-534-Fc; 6.05e+06 M⁻¹ s⁻¹ with hEphA2-clv385-534-Fc; 5.72e+06 M⁻¹ s⁻¹ with hEphA2-clv395-534-Fc; 5e+06 M⁻¹ s⁻¹ in assay [5]; 1e+07 M⁻¹ s⁻¹ in assay [6]; 7.78e+06 M⁻¹ s⁻¹ with hEphA2-clv432-534-Fc.

B6: AB-009815 (antibody, mouse IgG2a, V domains shown)
VH: QVQLQQWGAGLLKPSETLSLTCAVYGGSFSDYYWSWIRQPPGKGLEWIGEVNHRGSINYNNYNPSLKSRVTISVDTSKNQFSLKLTSVTAADTAVYYCAKPLRPHCTNGVCYSGDAFDIWGQGTMVTVAS
VL: SYVLTQPPSVSVAPGQTARITCGGNNIGSKNVHWYQQKPGQAPVLVVYDDSDRPSGIPEQFSGSNSGNTATLTISRVEAGDEADYYCQVWDSSSDHLVFGGGTKLTVL
By EC50 is commonly meant the concentration at which the effect is half-maximal. For B6, in assay [7], a half-maximal effect (EC50) was put at 5.5 nM and the “Flow Delta” value came to 745000. The “EC50 (read off the curve), ADC activity” value in [8] was ~2 nM. Moreover, in assay [9], the “ADCC Delta, A549 cells” value is 59.8 and the “ADCC EC50 (nM), A549 cells” value is 10.4 nM.

B7: AB-010699 (mouse IgG2a format) (antibody, V domains shown)
VH: QVQLQQWGAGLLKPSETLSLTCAVYGGSFSGYYWSWIRQPPGKGLEWIGEINHRGSINYNNYNPSLKSRVTISVDTSKNQFSLKLSSVTAADTAVYYCAKPLRPHCINGVCYSGDAFDIWGQGTMVTVAS
VL: SYVLTQPPSVSVAPGQTARITCGGNNIGYKNVHWYQQKPGQAPVLVVYDDSDRPSGIPERFSGSNSGNTATLTISRVEAGDEADYYCQVWDHSSDHVVFGGGTKLTVL
notes: tested in mIgG2a format
With B7, in assay [10], the affinity, expressed as Kd, was 19 nM; the koff turned out to be 0.075 s⁻¹; the kon came to 3.9e+06 M⁻¹ s⁻¹. In assay [11], this molecule came in with a Kd of 18.9 nM.

B8: Urelumab (AB-009811) (antibody, V domains shown)
VH: QVQLQQWGAGLLKPSETLSLTCAVYGGSFSGYYWSWIRQSPEKGLEWIGEINHGGYVTYNPSLESRVTISVDTSKNQFSLKLSSVTAADTAVYYCARDYGPGNYDWYFDLWGRGTLVTVSS
VL: EIVLTQSPATLSLSPGERATLSCRASQSVSSYLAWYQQKPGQAPRLLIYDASNRATGIPARFSGSGSGTDFTLTISSLEPEDFAVYYCQQRSNWPPALTFGGGTKVEIK
Consider B8, for which, in assay [12], the “EC50 (read off the curve), 4-1BB reporter activation with PC3” value was ~300 pM.
